The supplement of paper PMC10567573

B1: SMARCE1 (parent)
chain: YHNSPAYLAYINAKSRAEAALEEE

Variants of: B1
Assay: protein stability index of a GFP-peptide fusion (GPS, HEK-293T) (PSI 1-6); higher = more stable
Details: c terminus: a fixed tail appended
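Note: lentivirally expressed fusions sorted by FACS into six bins by GFP to DsRed ratio, PSI derived from sequencing read proportions per bin multiplied by bin number.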

Protein stability index, by site and new letter:
L21: E 1.84 | M 2.04 | H 2.77 | G 2.15 | V 2.67 | R 2.1 | W 2.94 | Y 1.94 | K 2.51 | C 2.89 | P 3.6 | I 3.51 | S 1.95 | N 2.46 | A 2.26 | T 1.59 | F 3.43 | D 1.88 | Q 2.07
Y10: R 3.34 | I 3 | G 1.75 | Q 2.19 | L 2 | H 1.68 | W 2.28 | A 3.76 | S 2.56 | K 3.03 | E 2.94 | V 2.41 | M 2.3 | C 2.25 | F 2.32 | N 2.05 | D 2.37 | P 2.11 | T 3.44
I11: E 2.64 | V 2.33 | P 3.06 | C 1.66 | N 2.59 | H 2.46 | L 2.24 | M 2.35 | W 2.35 | S 2.99 | R 2.29 | Q 2.85 | G 1.87 | T 2.99 | F 2.67 | K 2.59 | Y 3.27 | D 3.19
A9: T 2.24 | F 1.94 | H 2.51 | L 1.5 | K 1.68 | G 2.19 | C 1.77 | R 1.96 | N 2.39 | P 3.18 | I 2.81 | W 2.21 | V 2.29 | D 1.42 | Y 1.74 | Q 1.84 | E 1.56 | M 1.38 | S 2.96
R16: Q 2.17 | S 2.43 | M 1.81 | I 2.2 | T 2.55 | F 1.77 | K 2.4 | A 2.04 | C 2.72 | E 2.33 | H 2.15 | V 2.99 | D 2.4 | G 1.74 | L 2.56 | Y 2.82 | P 2.12 | N 1.35
K14: T 2.86 | E 2.03 | Q 2.55 | I 2.81 | S 1.51 | L 1.9 | F 2.35 | Y 2.63 | D 1.16 | M 1.57 | N 2.57 | C 2.14 | A 1.79 | V 2.15 | H 2.16 | R 2.51 | W 1.62 | G 2.89 | P 1.95
A19: P 1.92 | W 2.48 | E 2.69 | Y 2.46 | T 2.41 | H 2.02 | M 2.24 | D 2.33 | K 2.05 | S 2.06 | V 2.58 | C 2.84 | G 2.56 | L 2.49 | N 2.43 | F 2.31 | Q 2.12 | I 2.05 | R 2.59
E22: L 4.41 | M 2.01 | D 2.21 | Q 1.91 | S 2.41 | V 2.73 | N 2.44 | R 2.25 | T 2.36 | G 2.67 | F 2.04 | H 2.83 | A 2.7 | W 2.29 | I 2.59 | P 2.73 | C 2.17 | Y 1.9 | K 1.86
A20: M 1.32 | H 2.51 | G 3.01 | R 2.89 | T 1.61 | I 2.25 | V 2.56 | S 1.84 | Q 1.79 | C 2.27 | Y 3.29 | L 2.15 | P 2.66 | D 2.97 | E 2.32 | F 1.69 | N 2.42 | K 2.71 | W 1.93
E23: C 2.79 | A 2.34
Y7: A 2.66 | R 2.76 | G 2.31 | M 2.4 | H 2.78 | W 2.31 | Q 2.77 | I 2.47 | N 2.31 | F 2.64 | P 2.98 | E 3.06 | L 2.28 | S 2.76 | D 3.12 | V 2.91 | K 3 | C 2.26 | T 2.95
A6: G 2.37 | Y 2.23 | V 2.02 | P 1.94 | I 2.61 | W 2.21 | K 2.22 | C 1.77 | F 2.06 | R 2.14 | H 2.3 | T 1.78 | S 2.43 | L 1.81 | D 2.12 | M 2.07 | E 2.58 | N 1.81 | Q 2.11
L8: V 2.49 | M 2.23 | W 2.04 | F 2.93 | E 1.8 | N 3.65 | T 2.81 | Y 2.5 | H 2.12 | Q 3.47 | D 2.22 | G 1.69 | A 3.39 | P 1.81 | K 3.83 | R 2.47 | C 3.05 | I 3.09 | S 3.08
E18: S 2 | K 3.05 | Y 2.15 | Q 1.51 | N 2.21 | G 2.31 | L 1.61 | F 2.37 | V 2.76 | T 1.82 | I 3.18 | H 2.33 | C 2.46 | A 2.58 | W 2.76 | P 1.88 | R 1.97 | D 2.4 | M 2.11
A17: D 1.93 | L 2.04 | H 2.22 | P 2.45 | W 2.17 | K 1.53 | Y 2.05 | N 2.67 | E 1.75 | V 2.19 | S 2.06 | F 2.24 | R 1.68 | T 2.02 | M 2.23 | Q 3.13 | I 1.93 | C 2.1 | G 3.02
S15: G 2.11 | P 1.61 | A 2.53 | I 2.25 | W 2.08 | M 2.14 | D 2.06 | N 2.29 | V 2.26 | E 2.29 | L 2.42 | F 2.06 | H 2.59 | R 2.04 | Q 2.17 | C 3.03 | K 2.31 | Y 1.62 | T 2
A13: W 1.64 | T 2.28 | L 2.21 | K 2.52 | D 1.94 | R 2.51 | Y 2.13 | V 2.33 | S 1.83 | F 2.06 | M 3.18 | G 2.27 | E 1.94 | Q 2.83 | N 1.9 | C 3.05 | H 2.88 | I 2.49 | P 2.63
N12: I 1.64 | Y 2.23 | V 2.44 | M 2.33 | T 2.06 | W 2.09 | K 2.41 | F 2.28 | S 1.58 | P 3.69 | R 2.04 | C 2.02 | G 1.65 | D 2.26 | Q 2.25 | H 3.13 | E 1.93 | L 2.1 | A 1.77
P5: M 2.65 | Q 4.02 | T 2.46 | Y 2.31 | W 2.98 | V 3.69 | N 2.56 | K 2.06 | R 2.99 | S 2.67 | L 2.92
